This assay has as its target extracellular region of human V158 FcγRIIIa fused with glutathione S-Transferase (GST) (human, UniProt P08637 17-208). The experiment in a line: AlphaScreen competition. (In general: Alpha assays give light when donor and acceptor beads are brought close together.)

B1: WT alemtuzumab (antibody)
chain 1: not shown
chain 2: not shown
The IC50 is the concentration that gives 50% inhibition. A higher IC50 goes with weaker potency. The molecule B1 had an IC50 of 4.6 nM.
